# Measurements taken from patent US20240400677A1.
# Biological target: human SIRPα V1-His monomer protein (human) (UniProt P78324)
# Assay: BLI Octet, V5-scFv PPE captured, SIRP-His 500 nM
# Chain of human SIRPα V1-His monomer protein (human) (P78324 31-370): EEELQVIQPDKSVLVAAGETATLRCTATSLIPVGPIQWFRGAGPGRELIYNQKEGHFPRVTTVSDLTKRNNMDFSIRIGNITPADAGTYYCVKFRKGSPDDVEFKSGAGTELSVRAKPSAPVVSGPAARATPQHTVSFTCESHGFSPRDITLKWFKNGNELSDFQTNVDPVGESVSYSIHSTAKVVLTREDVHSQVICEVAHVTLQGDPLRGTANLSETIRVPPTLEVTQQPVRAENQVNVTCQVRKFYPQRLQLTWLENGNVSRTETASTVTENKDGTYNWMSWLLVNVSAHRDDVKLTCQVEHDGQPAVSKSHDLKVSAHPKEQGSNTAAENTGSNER
row,Binder,kdis [s⁻¹]
1,"Antibody 31 (scFv, V domains shown) VH: QVQLVQSGAEVKKPGASVKVSCKASGGTFRSYAISWVRQAPGQGLEWMGWMNPNSGNTGYAQKFQGRVTMTRDTSTSTVYMELSSLRSEDTAVYYCARESVLKGGMDVWGQGTTVTVSS VL: DIVMTQSPDSLAVSLGERATINCRSSQSLFHSSTNANNLAWYQQKPGQPPKLLIYWASTRESGVPDRFSGSGSGTDFTLTISSLQAEDVAVYYCQQYYITPLTFGQGTRLEIK",> 0.01
2,"Antibody 37 (scFv, V domains shown) VH: QVQLVQSGAEVKKPGASVKVSCKASGYTLNNYDINWVRQAPGQGLEWMGWISGYNGNTNYAQKLQGRVTMTRDTSTSTVYMELSSLRSEDTAVYYCARVGSSWEENDQWGQGTLVTVSS VL: DIQMTQSPSSLSASVGDRVTITCRASQSISRWLAWYQQKPGKAPKLLIYAASSLESGVPSRFSGSGSGTDFTLTISSLQPEDFATYYCQQTHSFPLTFGGGTKVEIK",> 0.01

# Next, values leading:
row,kdis [s⁻¹],Binder
1,> 0.01,"Antibody 28 (scFv, V domains shown) VH: QVQLVQSGAEVKKPGASVKVSCKASGYTFTSYNIHWVRQAPGQGLEWMGWISAYNGNTNYAQKLQGRVTMTRDTSTSTVYMELSSLRSEDTAVYYCALDGGQLGVAFDIWGQGTMVTVSS VL: DIQMTQSPSSLSASVGDRVTITCRASQGISNWLAWYQQKPGKAPKLLIYDASNLDAGVPSRFSGSGSGTDFTLTISSLQPEDFATYYCQQANSLPLTFGGGTKVEIK"
2,> 0.01,"Antibody 11 (scFv, V domains shown) VH: QVQLVQSGAEVKKPGASVKVSCKASGYTFTSYDINWVRQAPGQGLEWMGWMNPNSGNTGYAQKFQGRVTMTRDTSTSTVYMELSSLRSEDTAVYYCAKGAVAGTYYYYGMDVWGQGTTVTVSS VL: DIQMTQSPSSLSASVGDRVTITCRASQTINNYLNWYQQKPGKAPKLLIYDASNLETGVPSRFSGSGSGTDFTLTISSLQPEDFATYYCQQANSFPLTFGQGTKVEIK"
